Reference: patent US20220088131A1, “COMPOSITIONS AND METHODS RELATING TO C5L2” (King's College London, priority 2013, published 2022)

Columns and labels:
CD14+ monocytes [1] = experiment: IL-1β secretion by monocytes (ELISA); assay type: cell-based, human; conditions: resting and LPS-activated (100 ng/ml, 12 h) monocytes; FIG. 8
Method: (§1) FIG. 8. Effect of C5L2 blockage on IL-1β secretion by resting and activated CD4+ T cells and by monocytes. […] CD4+ T cells were isolated and left non-activated or CD3/CD46-activated as described (with or without addition of the C5aR/C5L2 double antagonist, dRA, 7 μM) and IL-1β secretion into the media measured at 24 h post activation using an ELISA. CD14+ monocytes (2.5×10^5) were left non-activated or activated with 100 ng/ml LPS for 12 h and supernatants assayed for IL-1β by ELISA. Data represent n=3 experiments with SEM for the CD4+ T cells and n=1 for monocytes (conditions were performed in duplicate and shown are the median values of each condition).
(§2) Human blood was obtained from healthy volunteers following ethical guidelines set by Kings College London (KCL) ethics committee (REC: 09/H0804/72). PBMCs were isolated by density centrifugation (Ficoll-Paque PLUS; GE healthcare, Uppsala, Sweden). Cell subsets were isolated by magnetic separation following manufacturer's instructions (Miltenyi Biotec, Auburn, Calif.). […]
(§3) The Th1/Th2/Th17 Cytometric Bead Array (BD Bioscience) was used to quantify cytokine production by CD4^+ T cells and monocytes following 12 or 36 h culture under distinct activation conditions. […] IL-1β amounts secreted into the cell media were measured by ELISA, according to the manufacturer's protocol (R&D Systems, Abingdon, UK).

human CD4+ T cells [2] = experiment: Cytokine secretion by CD4+ T cells with C5aR or C5aR/C5L2 blockade (Cytometric Bead Array); assay type: cell-based
Excerpt: Human blood was obtained from healthy volunteers following ethical guidelines set by Kings College London (KCL) ethics committee (REC: 09/H0804/72). PBMCs were isolated by density centrifugation (Ficoll-Paque PLUS; GE healthcare, Uppsala, Sweden). Cell subsets were isolated by magnetic separation following manufacturer's instructions (Miltenyi Biotec, Auburn, Calif.). Monocytes were positively selected using anti-CD14 microbeads (average purity 97%) and CD4^+ T cells were isolated from the CD14-negative fraction using anti-CD4 microbeads (average purity 98%). Alternatively, CD4^+ T cells were isolated from purified PBMCs by cell sorting after staining with antibodies to CD14 and CD4 and CD3.
CD4^+ T cells and CD14^+ monocytes were cultured in medium (RPMI-1640 medium (Sigma-Alich, Suffolk, UK), supplemented with 1% GlutaMAX, 1% penicillin/streptomycin (both Life Technologies, Paisley, UK) and 10% FBS (HyClone Laboratories, Logan, Utah). In the case of T cells media was supplemented with 25 U/ml IL-2 (Sigma-Aldrich; or with concentrations indicated in figure legends). CD4^+ T cells (2.5×10^5) were cultured alone or together with plate-bound anti-CD3 (OKT3, Biolegend, San Diego, Calif.), anti-CD3 and anti-CD28 (CD28.2, BD Pharmingen, San Jose, Calif.) or anti-CD3 and anti-CD46 (TRA-2-10, provided by John Atkinson, Washington University, St Louis, Mo.) all immobilised onto 48-well plates at concentrations of 2 μg/ml PBS overnight at 4° C. Monocytes (2.5×10^5) were cultured either alone or in the presence of LPS or Flagellin (1 μg/ml). […] Cells were cultured at 37° C. and 5% CO2 and cytokine secetion assessed at 12, 24 or 36 h post activation.
The Th1/Th2/Th17 Cytometric Bead Array (BD Bioscience) was used to quantify cytokine production by CD4^+ T cells and monocytes following 12 or 36 h culture under distinct activation conditions. Samples were processed following manufacturer's instructions and acquired using BD FACScan. IL-1β amounts secreted into the cell media were measured by ELISA, according to the manufacturer's protocol (R&D Systems, Abingdon, UK).

CD14+ monocytes [3] = experiment: Pro-inflammatory cytokine release by monocytes (CBA); assay type: cell-based, human; conditions: resting and Flagellin-stimulated monocytes; 36 hours; dRA 7 μM, PMX53 10 μM; FIG. 9
Method: FIG. 9. C5L2 blockade induces pro-inflammatory cytokine release by human monocytes. CD14+ monocytes (2.5×10^5) were cultured for 36 hours and supernatants assayed for cytokines using CBA. Monocytes were treated with either C5aR/C5L2 double receptor antagonist (dRA; 7 μM), C5aR antagonist (PMX53; 10 μM) or control (non-treated). The effect of antagonist treatment was assessed on non-activated monocytes (white bars) as well as monocytes activated with 1 μg/ml of either Flagellin (light grey bars) or 100 ng/ml LPS (dark grey bars). Data represent n=4 experiments with SEM indicated. Statistical testing was not conducted as insufficient experimental repeats were performed to assume normal distribution. Asterisk denotes that the median value was 10,400 pg/ml.
Human blood was obtained from healthy volunteers following ethical guidelines set by Kings College London (KCL) ethics committee (REC: 09/H0804/72). PBMCs were isolated by density centrifugation (Ficoll-Paque PLUS; GE healthcare, Uppsala, Sweden). […]
as §3

CD4+ T cells = experiment: TGF-β receptor chain expression in CD4+ T cells; assay type: cell-based, human; conditions: FIG. 16
Method: FIG. 16. C5L2 regulates TGF-β receptor chain expression in CD4+ T cells.
Results described above indicate that C5L2-mediated signals actively contribute to the negative regulation of human Th1 and Th17 responses. To further define C5L2-activated signaling events in CD4+ T cells, gene, miRNA and methylation arrays were performed using T cells from the C5-deficient patient and T cells activated in the presence of the dRA. […] It is believed that TGF-β is important for IL-17 production but also IFN-γ suppression. TGF-β receptor signaling via autocrine TGF-β production has been implicated as required for control of Th1 responses and prevention of autoimmunity in certain experimental models (Ishigame, et al., Proc Natl Acad Sci USA. (2013) 110(17):6961-6). It was of interest to examine whether C5L2-mediated signals regulate autocrine TGF-β production, TGF-β receptor signaling, or both.

human CD4+ T cells [4] = experiment: IL-1β secretion by CD4+ T cells (ELISA); assay type: cell-based; conditions: resting and activated (CD3/CD46) CD4+ T cells; dRA 7 μM; 24 h; FIG. 8
Method: as §1, §2, §3

[5] = activated CD4+ T cells, dRA 7 μM, PMX53 10 μM, FIG. 6

B1: A8delta71-73: Dual C5aR/C5L2 receptor antagonist; C5a variant A8 (C27A, H67F, D69R, M70S, Q71L, G73R, Arg74 deleted) lacking amino acids 71-73 (protein)
chain: TLQKKIEEIAAKYKHSVVKKCCYDGAAVNNDETCEQRAARISLGPRCIKAFTECCVVASQLRANISFKRS
IL-1β secretion (CD14+ monocytes [1]): increased IL-1β secretion | secretion of IFN-γ (human CD4+ T cells [2]; [5]): increased secretion | secretion of IL-17 (human CD4+ T cells [2]; [5]): increased secretion | secretion of IL-6 (human CD4+ T cells [2]; resting and activated CD4+ T cells, FIG. 7A): increased secretion | secretion of IL-6 (CD14+ monocytes [3]): promoted secretion | expression of TGF-β receptor chains (CD4+ T cells): increased expression | IL-1β secretion (human CD4+ T cells [4]): increased IL-1β secretion
